The results in this text go back to FireProtDB (doi:10.1074/jbc.274.53.37533).

To fix the notation:
B1: Cytochrome c-551, P00099 (parent)
chain: MKPYALLSLLATGTLLAQGAWAEDPEVLFKNKGCVACHAIDTKMVGPAYKDVAAKFAGQAGAEAELAQRIKNGSQGVWGPIPMPPNAVSDDEAQTLAKWVLSQK

Variants of B1 are the subject of this data set. The note with it: Pseudomonas aeruginosa (strain ATCC 15692 / DSM 22644 / CIP 104116 / JCM 14847 / LMG 12228 / 1C / PRS 101 / PAO1), pH 5, CD, structure 451C, whole UniProt chain shown.

Broadly, the Tm is the temperature at which the thermal transition is half complete. MKPYALLSLLATGTLLAQGAWAEDPEVLFKNKGCVACHAIDTKMVGPAYKDVAAKYAGQAGAEAYLAQRIKNGSQGVWGPIPMPPNAVSDDEAQTLAKWVLSQK [F56Y E65Y]: the “ddG of mutation (higher = less stable)” value (50.4 °C, Thermal, HCl 10 mM) was -2.4 kcal/mol. Besides, under “Thermal, HCl”, the Tm was 70.7 °C; the “change of melting temperature, mutant - wild type (higher = more stable)” value (“change of melting temperature, mutant” for short) stood at 20.3 °C; the “unfolding enthalpy (van 't Hoff)” value is 63.7 kcal/mol.

With MKPYALLSLLATGTLLAQGAWAEDPEVLFKNKGCVACHAIDTKMVGPAYKDVAAKYAGRAGAEAELAQRIKNGSQGVWGPIPMPPNAVSDDEAQTLAKWVLSQK [F56Y Q59R], the “ddG of mutation (higher = less stable)” value (50.4 °C, Thermal, HCl 10 mM) was -1.5 kcal/mol. Under “Thermal, HCl”, the midpoint of thermal melting (Tm) amounted to 62.9 °C; the “change of melting temperature, mutant” value amounted to 12.5 °C; the “unfolding enthalpy (van 't Hoff)” value turned out to be 54.5 kcal/mol.

In the case of MKPYALLSLLATGTLLAQGAWAEDPEVLFKNKGCVACHAIDTKMVGPAYKDVAAKFAGQAGAEAELAQRIKNGSQGVWGPIPMPPNAVSDDEAQTLAKWILSQK [V100I], under “25 °C, GdnHCl, HCl”, the “ddG of mutation (higher = less stable)” value is -0.06 kcal/mol, the denaturant m value came out at 2.02 kcal/mol/M and the “denaturant midpoint (higher = more stable)” value came out at 2.44 M. Also, the “ddG of mutation (higher = less stable)” value (50.4 °C, Thermal, HCl 10 mM) is -1 kcal/mol. In addition, under “Thermal, HCl”, the midpoint of thermal melting (Tm) worked out at 58.8 °C; the “change of melting temperature, mutant” value is 8.4 °C; the “unfolding enthalpy (van 't Hoff)” value was determined as 43.8 kcal/mol.

For MKPYALLSLLATGTLLAQGAWAEDPEVLAKNKGCVACHAIDTKMVGPAYKDVAAKFAGQAGAEAELAQRIKNGSQGVWGPIPMPPNAVSDDEAQTLAKWVLSQK [F29A], where the note is “50.4 °C, Thermal, HCl 10 mM”, the “ddG of mutation (higher = less stable)” value was -1.1 kcal/mol. Besides, for the setting “Thermal, HCl”, the Tm is 59.9 °C; the “change of melting temperature, mutant” value was determined as 9.5 °C; the “unfolding enthalpy (van 't Hoff)” value turned out to be 48.2 kcal/mol.

In the case of MKPYALLSLLATGTLLAQGAWAEDPEVLFKNKGCVACHAIDTKMVGPAYKDVAAKYAGRAGAEAYLAQRIKNGSQGVWGPIPMPPNAVSDDEAQTLAKWVLSQK [F56Y Q59R E65Y], the “ddG of mutation (higher = less stable)” value (50.4 °C, Thermal, HCl 10 mM) was -2 kcal/mol. Under “Thermal, HCl”, the Tm was determined as 57.9 °C; the “change of melting temperature, mutant” value was 17.5 °C; the “unfolding enthalpy (van 't Hoff)” value was 56.4 kcal/mol.

Consider MKPYALLSLLATGTLLAQGAWAEDPEVLFKNKGCVACHAIDTKMVGPAYKDVAAKYAGQAGAEAELAQRIKNGSQGVWGPIPMPPNAVSDDEAQTLAKWVLSQK [F56Y], for which the “ddG of mutation (higher = less stable)” value (50.4 °C, Thermal, HCl 10 mM) was -1.9 kcal/mol. Under “Thermal, HCl”, the midpoint of thermal melting (Tm) was found to be 66.4 °C; the “change of melting temperature, mutant” value is 16 °C; the “unfolding enthalpy (van 't Hoff)” value is 61.2 kcal/mol.

With MKPYALLSLLATGTLLAQGAWAEDPEVLFKNKGCVACHAIDTKMVGPAYKDVAAKFAGRAGAEAELAQRIKNGSQGVWGPIPMPPNAVSDDEAQTLAKWVLSQK [Q59R], the “ddG of mutation (higher = less stable)” value (50.4 °C, Thermal, HCl 10 mM) is -0.5 kcal/mol. Also, where the note is “Thermal, HCl”, the midpoint of thermal melting (Tm) was 54.7 °C; the “change of melting temperature, mutant” value is 4.3 °C; the “unfolding enthalpy (van 't Hoff)” value came to 51.3 kcal/mol.

MKPYALLSLLATGTLLAQGAWAEDPEVLAKNKGCMACHAIDTKMVGPAYKDVAAKFAGQAGAEAELAQRIKNGSQGVWGPIPMPPNAVSDDEAQTLAKWVLSQK [F29A V35M]: the “ddG of mutation (higher = less stable)” value (50.4 °C, Thermal, HCl 10 mM) is -1.4 kcal/mol. Also, for the setting “Thermal, HCl”, the melting temperature (Tm) was found to be 62.4 °C; the “change of melting temperature, mutant” value came to 12 °C; the “unfolding enthalpy (van 't Hoff)” value amounted to 46.7 kcal/mol.

For MKPYALLSLLATGTLLAQGAWAEDPEVLFKNKGCVACHAIDTKMVGPAYKDVAAKFAGRAGAEAYLAQRIKNGSQGVWGPIPMPPNAVSDDEAQTLAKWVLSQK [Q59R E65Y], the “ddG of mutation (higher = less stable)” value (50.4 °C, Thermal, HCl 10 mM) is -0.5 kcal/mol. Further, where the note is “Thermal, HCl”, the Tm was 54.7 °C; the “change of melting temperature, mutant” value is 4.3 °C; the “unfolding enthalpy (van 't Hoff)” value worked out at 46.2 kcal/mol.

Consider MKPYALLSLLATGTLLAQGAWAEDPEVLFKNKGCMACHAIDTKMVGPAYKDVAAKFAGQAGAEAELAQRIKNGSQGVWGPIPMPPNAVSDDEAQTLAKWVLSQK [V35M], for which, where the note is “50.4 °C, Thermal, HCl 10 mM”, the “ddG of mutation (higher = less stable)” value is -0.4 kcal/mol. Under “Thermal, HCl”, the Tm is 53.6 °C; the “change of melting temperature, mutant” value was 3.2 °C; the “unfolding enthalpy (van 't Hoff)” value was 43.8 kcal/mol.

MKPYALLSLLATGTLLAQGAWAEDPEVLFKNKGCVACHAIDTKMVGPAYKDVAAKFAGQAGAEAYLAQRIKNGSQGVWGPIPMPPNAVSDDEAQTLAKWVLSQK [E65Y]: the “ddG of mutation (higher = less stable)” value (50.4 °C, Thermal, HCl 10 mM) is -0.6 kcal/mol. Under “Thermal, HCl”, the melting temperature (Tm) was determined as 55.5 °C; the “change of melting temperature, mutant” value came out at 5.1 °C; the “unfolding enthalpy (van 't Hoff)” value came out at 57.4 kcal/mol.
